Test results: patent US20240352102A1
Values joined by “and” are separate entries in the source; they are usually repeats but may differ in a detail not shown here. Identical values can stand only once. Like-named read-outs stand apart in the source and are kept apart here.

Experiments:
[1] = molecular target: T1, Peptide_060; experiment: peptide microarray
T1 sequence (peptide): LKHQPGGGKVQIINK

[2] = molecular target: T2, Peptide_061; experiment: peptide microarray
T2 sequence (peptide): PGGGKVQIINKKLDL

[3] = molecular target: biotinylated a/B tubulin dimers; experiment: SPR, biotinylated tubulin dimers as probe on a streptavidin chip, tau in solution
[4] = molecular target: T3, Peptide_051; experiment: peptide microarray
T3 sequence (peptide): RTPPKSPSSAKSRLQ

[5] = molecular target: T1, Peptide_060; experiment: peptide microarray; remark: listed apart in the source
[6] = molecular target: T2, Peptide_061; experiment: peptide microarray; remark: listed apart in the source
[7] = molecular target: T1, Peptide_060; experiment: peptide microarray; remark: listed apart in the source

fluorescence intensity [1]	fluorescence intensity [7]	Substance	other results
1010		T14 (antibody)	fluorescence intensity [5]: 840
	771 and 1024	TNT2 (antibody)	
	925 and 797	TNT1 (antibody)	
3040 and 1780		tau1 (antibody)	
2600	3070	ALZ50 (antibody)	

Continued, substance first:

Substance	fluorescence intensity [1]	fluorescence intensity [7]	other results
T46 (antibody)	1650 and 844		fluorescence intensity [2]: 3020
MC1 (antibody)	770 and 1100		
Recombinant human tau isoform 1N4R (from UniProt P10636 1-412)			Kd [3]: 39.8 nM
RD4 (antibody)	722		fluorescence intensity [2]: 10700; fluorescence intensity [4]: 163; fluorescence intensity [5]: 738; fluorescence intensity [6]: 21000
TOC1 (antibody)	1580 and 1790		
